Results as given in patent US20180044393A1 (INSERM INSTITUT NATIONAL DE LA SANT ET DE LA RECHERCHE M …, published 2018).

Tests used:
[1] = biological target: T1, Orexin receptor-1 (human OX1R, wild type) stably expressed in CHO-S cells (human, UniProt O43613 1-425); assay: cell-based or functional assay
T1 sequence: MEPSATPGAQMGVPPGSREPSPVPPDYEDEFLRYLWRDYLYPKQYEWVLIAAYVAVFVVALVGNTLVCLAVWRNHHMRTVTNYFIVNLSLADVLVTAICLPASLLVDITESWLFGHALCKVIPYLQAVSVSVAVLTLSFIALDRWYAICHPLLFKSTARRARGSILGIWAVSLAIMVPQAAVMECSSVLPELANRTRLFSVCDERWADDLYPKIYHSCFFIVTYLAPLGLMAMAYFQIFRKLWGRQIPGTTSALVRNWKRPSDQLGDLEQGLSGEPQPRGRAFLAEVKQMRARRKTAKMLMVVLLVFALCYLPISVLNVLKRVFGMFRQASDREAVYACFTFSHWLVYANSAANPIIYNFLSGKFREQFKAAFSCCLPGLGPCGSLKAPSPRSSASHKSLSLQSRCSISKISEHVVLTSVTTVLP

[2] = biological target: T1, Orexin receptor-1 (human OX1R, wild …); assay: competitive inhibition of 125I-OxA binding on CHO-S cells expressing human OX1R
Experimental: CHO—S cells expressing recombinant native or mutated OX1R were grown as previously described (El Firar et al., 2009) and maintained at 37° C. in a humidified 5% CO₂/air incubator. ¹²⁵I-orexia-A (74 TBq/mmol) was prepared as previously described (El Firar et al., 2009). […] Free peptides were removed by 2 cell washing cycles with PBS. […] Data were analyzed using the GraphPad software (http://www.graphpad.com).

Apoptosis induction EC50 [1]: 2180 nM
IP3 production EC50 [1]: 1510 nM
IC50 [2]: 388 nM
B1: OxB 7-28 (peptide)
peptide: LQGRLQRLLQASGNHAAGILTM
notes: synthetic deletion mutant of OxB; also called deletion of the first six residues of OxB
